Results published in patent publication US12077576 (TRUSTEES OF TUFTS COLLEGE, dated 2024).

Legend:
[1] = target: T1, Clostridium difficile toxin B (TcdB) (Clostridium difficile, UniProt P18177 2-2366); test: cell-based or functional assay
[2] = target: T1, Clostridium difficile toxin B (TcdB); test: ELISA, VHH dilution series on plate-coated rTcdB, anti-E-tag-HRP detection
[3] = target: T1, Clostridium difficile toxin B (TcdB); test: cell-based or functional assay; remark: listed apart in the source

T1 sequence (P18177 2-2366): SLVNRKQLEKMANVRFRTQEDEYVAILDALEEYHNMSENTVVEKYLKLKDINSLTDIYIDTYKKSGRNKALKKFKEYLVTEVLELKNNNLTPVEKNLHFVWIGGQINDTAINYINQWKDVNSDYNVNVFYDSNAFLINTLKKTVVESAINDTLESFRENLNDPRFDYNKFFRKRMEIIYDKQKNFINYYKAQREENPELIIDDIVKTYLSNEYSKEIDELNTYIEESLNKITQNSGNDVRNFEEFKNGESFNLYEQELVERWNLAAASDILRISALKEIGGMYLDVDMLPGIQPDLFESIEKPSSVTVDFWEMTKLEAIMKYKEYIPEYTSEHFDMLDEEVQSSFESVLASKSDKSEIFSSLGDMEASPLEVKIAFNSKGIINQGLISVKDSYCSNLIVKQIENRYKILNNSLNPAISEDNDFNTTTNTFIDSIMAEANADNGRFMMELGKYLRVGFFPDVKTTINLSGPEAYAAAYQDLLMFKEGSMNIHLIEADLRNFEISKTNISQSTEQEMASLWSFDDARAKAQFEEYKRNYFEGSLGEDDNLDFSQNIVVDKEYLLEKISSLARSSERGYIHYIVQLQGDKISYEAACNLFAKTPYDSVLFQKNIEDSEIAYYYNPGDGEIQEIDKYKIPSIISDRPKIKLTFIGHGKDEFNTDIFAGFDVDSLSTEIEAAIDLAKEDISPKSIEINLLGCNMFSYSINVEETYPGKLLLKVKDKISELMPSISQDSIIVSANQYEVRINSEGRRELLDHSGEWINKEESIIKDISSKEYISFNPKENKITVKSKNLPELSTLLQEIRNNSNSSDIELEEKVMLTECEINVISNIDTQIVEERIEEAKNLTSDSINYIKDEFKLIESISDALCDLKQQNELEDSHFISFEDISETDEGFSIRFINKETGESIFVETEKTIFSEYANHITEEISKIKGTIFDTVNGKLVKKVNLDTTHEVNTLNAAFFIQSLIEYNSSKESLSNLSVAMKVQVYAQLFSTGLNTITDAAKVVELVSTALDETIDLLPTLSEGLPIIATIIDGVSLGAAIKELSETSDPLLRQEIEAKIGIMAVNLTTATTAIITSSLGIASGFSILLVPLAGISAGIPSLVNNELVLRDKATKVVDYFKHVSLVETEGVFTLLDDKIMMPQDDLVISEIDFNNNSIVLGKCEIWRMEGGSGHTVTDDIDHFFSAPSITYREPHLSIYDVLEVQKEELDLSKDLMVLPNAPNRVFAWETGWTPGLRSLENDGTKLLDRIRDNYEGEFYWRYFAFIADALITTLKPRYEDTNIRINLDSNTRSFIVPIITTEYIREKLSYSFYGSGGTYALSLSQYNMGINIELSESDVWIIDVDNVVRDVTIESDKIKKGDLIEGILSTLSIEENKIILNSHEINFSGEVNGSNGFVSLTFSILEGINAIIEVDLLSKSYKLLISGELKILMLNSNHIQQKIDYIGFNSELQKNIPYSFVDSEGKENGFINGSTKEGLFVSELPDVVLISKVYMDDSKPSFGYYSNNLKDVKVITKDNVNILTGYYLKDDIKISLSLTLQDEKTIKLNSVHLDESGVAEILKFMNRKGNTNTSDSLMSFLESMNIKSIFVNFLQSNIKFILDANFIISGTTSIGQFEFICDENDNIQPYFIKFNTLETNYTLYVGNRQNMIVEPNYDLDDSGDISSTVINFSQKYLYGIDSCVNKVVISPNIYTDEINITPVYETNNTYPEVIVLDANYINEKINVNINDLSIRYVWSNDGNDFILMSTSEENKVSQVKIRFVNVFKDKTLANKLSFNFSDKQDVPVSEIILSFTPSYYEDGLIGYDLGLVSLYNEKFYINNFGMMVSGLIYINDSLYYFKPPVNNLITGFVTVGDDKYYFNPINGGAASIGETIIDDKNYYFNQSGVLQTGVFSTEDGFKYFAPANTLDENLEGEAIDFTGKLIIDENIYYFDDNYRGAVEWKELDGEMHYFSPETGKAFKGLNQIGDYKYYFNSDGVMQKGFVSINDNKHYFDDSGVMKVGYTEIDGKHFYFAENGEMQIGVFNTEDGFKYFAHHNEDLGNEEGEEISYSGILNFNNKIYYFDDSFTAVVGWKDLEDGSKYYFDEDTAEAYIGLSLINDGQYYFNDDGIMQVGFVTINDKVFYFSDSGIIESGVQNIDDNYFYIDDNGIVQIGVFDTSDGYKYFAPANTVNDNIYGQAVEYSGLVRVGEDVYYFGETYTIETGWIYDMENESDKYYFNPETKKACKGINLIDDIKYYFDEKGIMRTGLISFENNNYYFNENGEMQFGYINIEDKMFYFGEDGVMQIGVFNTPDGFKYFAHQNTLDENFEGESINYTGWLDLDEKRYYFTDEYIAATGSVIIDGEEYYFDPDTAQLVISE

Binder	Apparent potency, (IC50); TcdB neutralization, Vero cell rounding assay [1] [nM]	EC50 [2] [nM]	IC50 TcdB-neutralization potency (FIG. 1), Vero cell rounding assay [3] [nM]
JZS-A2a (XAF-1) anti-TcdB VHH (VHH) VHH: QVQLAESGGGLVQAGGSLRLSCAASGSVYTFMGWYRQAPGKTRELVAGISGGTITKYADSVKGRFIISRDSPKNTIYLQMNELKVEDTGVYYCNAGDTIAQAMGTRRFPFDRWGQGTQVTVAS	> 25	> 25	
JZS-C10 (XAF-9) anti-TcdB VHH (VHH) VHH: QLQLVETGGLVQAGGSLRLSCVGSGRGPGINVMGWYRQAPGTERELVATWQTGGTTNYADSVKGRFTISRDNLKNTVSLQMDSLKPEDTAVYYCYLKKWRDEYWGQGTQVTVSS	0.5	0.1	
JZS-B2 (XAF-4) anti-TcdB VHH (VHH) VHH: QVQLAESGGGLVQAGGSLRLSCVGSGTSFPRNYMGWYRQAPGKQRELVAAISHDGNVEYADSVKGRFTISRGNFVNTVALQMNSLKSEDTAVYYCKLVTLRRDEYWGQGTQVTVSS	> 125	0.3	
JZT-F7 (XAG-1) anti-TcdB VHH (VHH) VHH: QVQLVETGGGLVQAGGSLRLSCAASGSILSSMGWYRQAPGNQREFVASISRTGATDYADSVAGRFIISRDRGKNTVLALQMDSLKPEDTAVYYCNAGLGMGDPRRPGPWWGQGTQVTVSS	1	3	
JZS-E6 (XAF-11) anti-TcdB VHH (VHH) VHH: QVQLAETGGGLVQAGGSLRLSCAASGRLSERIFMISTMAWYRQVPGKQRELVAEISRLGRANYSDSVTDRFIISRDNTKNTVDLQMNSLKPEDTAVYYCNLKPFVDNYRGPGTQVTVSS	1	0.8	
JZS-H9 (XAF-14) anti-TcdB VHH (VHH, also called JZX-H9) VHH: QVQLVESGGGLVQPGGSLTINCTVSGTAFSLDTMTWYRQAPGKQRELAADISSSGASNYLASVKGRFTISRDNAKSALYLQMNSLKPEDTGTYYCYRGRVRGVWPLDSGMMYWGKGTLVTVSS	15	1	
JZS-C2 (XAF-6) anti-TcdB VHH (VHH) VHH: QVQLAESGGGLVQPGGSLRLSCAASGFTSNSYYIGWFRQAPGKGREAVSSISSSGGSPNYANAVKGRFTITRDNANNTVYLQMDNLKPEDTAVYYCAASKFPLTTMASNRYHYWGQGTQVTVSS	0.5	3	
JZS-E4 (XAF-10) anti-TcdB VHH (VHH, also called JZX-E4) VHH: QVQLVESGGGLAQAGGSLRLSCAASGSSFSMNVMGWYRQPPGKQRELVATIRSDGITNYAESVKGRFTISRDNVKNTVHLEMNRLKAEDTAVYYCFHGRARTGNNADLGSWGQGTQVTVSS	1	2	~0.5
JZS-H4 (XAF-13) anti-TcdB VHH (VHH) VHH: QLQLVESGGGLVQPGGSLRLSCVASGFNFSVQIMSWVRQAPGKGLEWVSAISTGGASKSYADFAKGRFTISRDNAKNTLYLQMNSLQLEDTAVYFCSKGPRTWINSSPRGQGTQVTVSS	0.5	0.2	
JZS-B9 (XAF-5) anti-TcdB VHH (VHH) VHH: QLQLVESGGGLVQPGGSLRLSCTSARFSLINYAIGWFRQAPGQKREGVSLLTSGGATYYADSARDRFTISRDNARNTVYLQMNSLKPEDTAVYSCAAGPYSRTLVSRWKVGDGMEYWGKGTLVTVSS	1	0.2	
JZS-F6 (XAF-12) anti-TcdB VHH (VHH) VHH: QLQLAESGGGLVQPGGSLRLSCAASGITFSNVAMSWVRQAPGKGLEWVSTISTGGSSTSYLDSVKSRFTISRDNAKKTVYLQMNSLKPEDTAVYYCVKGPKYSATIRRPEGQGTQVTVSS	0.5	0.1	
JZT-G9 (XAG-7) anti-TcdB VHH (VHH) VHH: QVQLAETGGGLVQAGGSLRLSCVSSERNPGINAMGWYRQAPGSQRELVAVWQTGGSLSYADSVKGRFTISRDNLKNTVYLQMNSLKPEDAAVYYCYLKKWRDQYWGQGTRVTVSS	3	0.1	
